{
  "source": "patent US20230227838A1",
  "about": "“ENHANCED CELL SURVIVAL AGAINST BIOTIC AND ABIOTIC STRESSES THROUGH SALICYLICK ACID-INDUCED NPR1 CONDENSATES” (priority 2020, published 2023)",
  "data": [
    {"target": "sim3-GFP (Arabidopsis thaliana) (UniProt P93002)", "sequence (P93002 other isoform, or with tags, fused parts or gaps)": "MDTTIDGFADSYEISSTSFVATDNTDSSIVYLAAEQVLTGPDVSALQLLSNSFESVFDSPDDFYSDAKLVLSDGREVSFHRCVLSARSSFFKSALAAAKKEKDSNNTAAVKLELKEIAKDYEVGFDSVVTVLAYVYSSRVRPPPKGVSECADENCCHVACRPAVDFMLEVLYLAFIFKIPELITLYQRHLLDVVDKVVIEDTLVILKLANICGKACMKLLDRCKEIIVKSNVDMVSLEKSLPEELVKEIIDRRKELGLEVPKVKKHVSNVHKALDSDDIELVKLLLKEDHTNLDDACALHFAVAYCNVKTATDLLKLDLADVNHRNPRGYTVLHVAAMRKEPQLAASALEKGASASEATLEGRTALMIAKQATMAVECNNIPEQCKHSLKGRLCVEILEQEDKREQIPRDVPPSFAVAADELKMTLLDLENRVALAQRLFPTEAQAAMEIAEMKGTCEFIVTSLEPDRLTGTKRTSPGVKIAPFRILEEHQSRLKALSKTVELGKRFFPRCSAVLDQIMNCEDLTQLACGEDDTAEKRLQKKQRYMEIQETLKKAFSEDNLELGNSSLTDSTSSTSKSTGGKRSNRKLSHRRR", "assay": "sim3-GFP IP, LC-MS/MS", "units": {"Normalized Fold Change: SA vs Mock": "fold"}, "values": [
      {"binder": "FPA, RNA binding (protein, UniProt Q8LPQ9 1-901, looked up) Flowering time control protein FPA: MALSMKPFRADDSGFQSNNLWVGSLTPETTESDLTELFGRYGDIDRITVYSSRGFAFIYYRHVEEAVAAKEALQGANLNGSQIKIEYARPAKPCKSLWVGGIGPNVSKDDLEEEFSKFGKIEDFRFLRERKTAFIDYYEMDDALQAKSMNGKPMGGSFLRVDFLRSQAPKKEQWAGSYDNRNGNMNHKPQYPHSYEDFKGDVQPSKVLWIGFPPTATQCNDEQILHNAMILFGEIERVKSYPSRNFALVEFRSAEEARQCKEGLQGRLFNNPRIKIMYSNDELPPEQDDTSFYSGMKRSRTDMFNNDPSFVSSPHSTGIPGSMRPLRGTNERSYNGAEYNDVVGKEPNWRRPSANGTGILPSPTGPGILPSPAQGTRRPMRSNPDSWEGYDPAQLVRESKRTRRDGSVDGFTPMGVDERSFGRGSVAARPIRGPPDSDHIWRGMIAKGGTPVCCARCVPMGKGIETKLPEVVNCSARTDLNMLAKHYAVAIGCEIVFFVPDREEDFASYTEFLRYLSSKDRAGVAKLDDGTTLFLVPPSDFLTDVLQVTRQERLYGVVLKLPPPAVPVTASYRQESQSNPLHYMDQARDSPANASHSLYPPRENYIRGAPEHLTAASKPSVSEPLRIPNNAAPQAGVSLTPELLATLASILPATSQPAAPESHQPMSGPSTVVSTAHQSNGLYNGEAPSQAWKRGPQTVHDASNQSFQQYGNQYTPAGQLPPPPSRYPPASNNPNYTSGMVHGNMQYQSQSVNMPQLSPLPNMPHNNYSMYTQGSSNHPVSQPMVQQYQPEASMPNQNYGPIPSYQQANFHGVTTNQAQNLNPSQFQAAMQPPADKANLEPQNQALRLQPMISGDGQGTTDGEVDKNQRYQSTLQFAANLLLQIQQKQQQQSSGTPAGQGP", "Normalized Fold Change: SA vs Mock": 4.87},
      {"binder": "PDIL2-2, PDI-like 2-2 (protein, UniProt Q9MAU6 27-447, looked up) Protein disulfide-isomerase like 2-2: LYGSSSPVLQLTPSNFKSKVLNSNGVVLVEFFAPWCGHCQSLTPTWEKVASTLKGIATVAAIDADAHKSVSQDYGVRGFPTIKVFVPGKPPIDYQGARDAKSISQFAIKQIKALLKDRLDGKTSGTKNGGGSSEKKKSEPSASVELNSSNFDELVTESKELWIVEFFAPWCGHCKKLAPEWKKAANNLKGKVKLGHVNCDAEQSIKSRFKVQGFPTILVFGSDKSSPVPYEGARSASAIESFALEQLESNAGPAEVTELTGPDVMEDKCGSAAICFVSFLPDILDSKAEGRNKYLEMLLSVADKFKKDPYGFVWVAAGKQPDLEKRVGVGGYGYPAMVALNAKKGAYAPLKSGFEVKHLKDFVKEAAKGGKGNLPIDGTMEIVKTEAWDGKDGEVVDADEFSLEDLMGNDDEASTESKDDL", "Normalized Fold Change: SA vs Mock": 2.2},
      {"binder": "UGT73B2, UDP-glucosyltransferase 73B2 (protein, UniProt Q94C57 1-483, looked up) UDP-glucosyl transferase 73B2: MGSDHHHRKLHVMFFPFMAYGHMIPTLDMAKLFSSRGAKSTILTTSLNSKILQKPIDTFKNLNPGLEIDIQIFNFPCVELGLPEGCENVDFFTSNNNDDKNEMIVKFFFSTRFFKDQLEKLLGTTRPDCLIADMFFPWATEAAGKFNVPRLVFHGTGYFSLCAGYCIGVHKPQKRVASSSEPFVIPELPGNIVITEEQIIDGDGESDMGKFMTEVRESEVKSSGVVLNSFYELEHDYADFYKSCVQKRAWHIGPLSVYNRGFEEKAERGKKANIDEAECLKWLDSKKPNSVIYVSFGSVAFFKNEQLFEIAAGLEASGTSFIWVVRKTKDDREEWLPEGFEERVKGKGMIIRGWAPQVLILDHQATGGFVTHCGWNSLLEGVAAGLPMVTWPVGAEQFYNEKLVTQVLRTGVSVGASKHMKVMMGDFISREKVDKAVREVLAGEAAEERRRRAKKLAAMAKAAVEEGGSSFNDLNSFMEEFSS", "Normalized Fold Change: SA vs Mock": 8.08},
      {"binder": "GRF6, G-box regulating factor 6 (protein, UniProt P48349 1-248, looked up) 14-3-3-like protein G-BOX factor 14 lambda: MAATLGRDQYVYMAKLAEQAERYEEMVQFMEQLVTGATPAEELTVEERNLLSVAYKNVIGSLRAAWRIVSSIEQKEESRKNDEHVSLVKDYRSKVESELSSVCSGILKLLDSHLIPSAGASESKVFYLKMKGDYHRYMAEFKSGDERKTAAEDTMLAYKAAQDIAAADMAPTHPIRLGLALNFSVFYYEILNSSDKACNMAKQAFEEAIAELDTLGEESYKDSTLIMQLLRDNLTLWTSDMQEQMDEA", "Normalized Fold Change: SA vs Mock": 2.01},
      {"binder": "ADL3, CF1, DL3, DRP2B, dynamin-like 3 (protein, UniProt Q9LQ55 1-920, looked up) Dynamin-2B: MEAIDELSQLSDSMRQAASLLADEDPDETSSSRRPATSLNVVALGNVGAGKSAVLNSLIGHPVLPTGENGATRAPIIIDLSREESLSSKAIILQIDNKNQQVSASALRHSLQDRLSKGASGRGRDEIYLKLRTSTAPPLKLIDLPGLDQRIVDDSMIGEHAQHNDAILLVVVPASQASEISSSRALKIAKEYDPESTRTVGIISKIDQAAENPKSLAAVQALLSNQGPPKTTDIPWVALIGQSVSIASAQSGGSENSLETAWRAESESLKSILTGAPQSKLGRIALVDTLASQIRSRMKLRLPNILTGLQGKSQIVQDELARLGEQLVSSAEGTRAIALELCREFEDKFLLHLAGGEGSGWKVVASFEGNFPNRIKKLPLDRHFDLNNVKRIVLEADGYQPYLISPEKGLRSLIKTVLELAKDPARLCVDEVHRVLVDIVSASANATPGLGRYPPFKREVVAIASAALDGFKNEAKKMVVALVDMERAFVPPQHFIRLVQRRMERQRREEELKGRSSKKGQDAEQSLLNRATSPQPDGPSSTGGSLKSLRDKLMPQDKDKDKEKETPEVSGLKTAGPEGEITAGYLMKKSAKTNGWSRRWFVLNEKTGKLGYTKKQEERNFRGTVTLEECSIEEISDDEGEKSKSSKDKKSNGPDSKGPGLVFKITCRVPYKTVLKAHNALVLKAESMVDKNEWINKLQKVIQARGGQVGSASMRQSLSEGSLDKMVRKPVDPEEELRWMSQEVRGYVEAVLNSLAANVPKAVVLCQVEKSKEDMLNQLYSSISAIGNERIESLIQEDQNVKRRRDRYQKQSSLLSKLTRQLSIHDNRAAAASSWSDNSGTESSPRTNGGSSGEDWMNAFNAAASGPDSLKRYGSGGHSRRYSDPAQNGEDSSGSGGSSRRTTPNRLPPAPPQSGSSYRY", "Normalized Fold Change: SA vs Mock": 2.5},
      {"binder": "PCS1, phytochelatin synthase 1 (PCS1) (protein, UniProt Q9S7Z3 1-485, looked up) Glutathione gamma-glutamylcysteinyltransferase 1: MAMASLYRRSLPSPPAIDFSSAEGKLIFNEALQKGTMEGFFRLISYFQTQSEPAYCGLASLSVVLNALSIDPGRKWKGPWRWFDESMLDCCEPLEVVKEKGISFGKVVCLAHCSGAKVEAFRTSQSTIDDFRKFVVKCTSSENCHMISTYHRGVFKQTGTGHFSPIGGYNAERDMALILDVARFKYPPHWVPLKLLWEAMDSIDQSTGKRRGFMLISRPHREPGLLYTLSCKDESWIEIAKYLKEDVPRLVSSQHVDSVEKIISVVFKSLPSNFNQFIRWVAEIRITEDSNQNLSAEEKSRLKLKQLVLKEVHETELFKHINKFLSTVGYEDSLTYAAAKACCQGAEILSGSPSKEFCCRETCVKCIKGPDDSEGTVVTGVVVRDGNEQKVDLLVPSTQTECECGPEATYPAGNDVFTALLLALPPQTWSGIKDQALMHEMKQLISMASLPTLLQEEVLHLRRQLQLLKRCQENKEEDDLAAPAY", "Normalized Fold Change: SA vs Mock": 3.43},
      {"binder": "GPX8, glutathione peroxidase 8 (protein, UniProt Q8LBU2 1-167, looked up) Probable glutathione peroxidase 8: MATKEPESVYELSIEDAKGNNLALSQYKDKVLLIVNVASKCGMTNSNYTELNELYNRYKDKGLEILAFPCNQFGDEEPGTNDQITDFVCTRFKSEFPIFNKIEVNGENASPLYKFLKKGKWGIFGDDIQWNFAKFLVDKNGQAVQRYYPTTSPLTLEHDIKNLLNIS", "Normalized Fold Change: SA vs Mock": 19.6},
      {"binder": "ELI3-2, elicitor-activated gene 3-2 (protein, UniProt Q02972 1-359, looked up) Cinnamyl alcohol dehydrogenase 8: MGKVLQKEAFGLAAKDNSGVLSPFSFTRRETGEKDVRFKVLFCGICHSDLHMVKNEWGMSTYPLVPGHEIVGVVTEVGAKVTKFKTGEKVGVGCLVSSCGSCDSCTEGMENYCPKSIQTYGFPYYDNTITYGGYSDHMVCEEGFVIRIPDNLPLDAAAPLLCAGITVYSPMKYHGLDKPGMHIGVVGLGGLGHVGVKFAKAMGTKVTVISTSEKKRDEAINRLGADAFLVSRDPKQIKDAMGTMDGIIDTVSATHSLLPLLGLLKHKGKLVMVGAPEKPLELPVMPLIFERKMVMGSMIGGIKETQEMIDMAGKHNITADIELISADYVNTAMERLEKADVRYRFVIDVANTLKPNPNL", "Normalized Fold Change: SA vs Mock": 57},
      {"binder": "DMR6, 2-oxoglutarate (2OG) and Fe(II)-dependent oxygenase superfamily protein (protein, UniProt Q9FLV0 1-341, looked up) Protein DOWNY MILDEW RESISTANCE 6: MAAKLISTGFRHTTLPENYVRPISDRPRLSEVSQLEDFPLIDLSSTDRSFLIQQIHQACARFGFFQVINHGVNKQIIDEMVSVAREFFSMSMEEKMKLYSDDPTKTTRLSTSFNVKKEEVNNWRDYLRLHCYPIHKYVNEWPSNPPSFKEIVSKYSREVREVGFKIEELISESLGLEKDYMKKVLGEQGQHMAVNYYPPCPEPELTYGLPAHTDPNALTILLQDTTVCGLQILIDGQWFAVNPHPDAFVINIGDQLQALSNGVYKSVWHRAVTNTENPRLSVASFLCPADCAVMSPAKPLWEAEDDETKPVYKDFTYAEYYKKFWSRNLDQEHCLENFLNN", "Normalized Fold Change: SA vs Mock": 15.6},
      {"binder": "RH39 (protein, UniProt Q56X76 1-621, looked up) DEAD-box ATP-dependent RNA helicase 39: MVGASRTILSLSLSSSLFTFSKIPHVFPFLRLHKPRFHHAFRPLYSAAATTSSPTTETNVTDPDQLKHTILLERLRLRHLKESAKPPQQRPSSVVGVEEESSIRKKSKKLVENFQELGLSEEVMGALQELNIEVPTEIQCIGIPAVMERKSVVLGSHTGSGKTLAYLLPIVQLMREDEANLGKKTKPRRPRTVVLCPTRELSEQVYRVAKSISHHARFRSILVSGGSRIRPQEDSLNNAIDMVVGTPGRILQHIEEGNMVYGDIAYLVLDEADTMFDRGFGPEIRKFLAPLNQRALKTNDQGFQTVLVTATMTMAVQKLVDEEFQGIEHLRTSTLHKKIANARHDFIKLSGGEDKLEALLQVLEPSLAKGSKVMVFCNTLNSSRAVDHYLSENQISTVNYHGEVPAEQRVENLKKFKDEEGDCPTLVCTDLAARGLDLDVDHVVMFDFPKNSIDYLHRTGRTARMGAKGKVTSLVSRKDQMLAARIEEAMRNNESLESLTTDNVRRDAARTHITQEKGRSVKQIREVSKQRNSRDKPSSSSPPARSTGGKTPVRKSSSSSFSKPRKASSPPEKSSKPKRKILKTVGSRSIAARGKTGSDRRPGKKLSVVGFRGKSSSARAS", "Normalized Fold Change: SA vs Mock": 46.9},
      {"binder": "UBC36, ubiquitin-conjugating enzyme 36 (protein, UniProt Q9FZ48 1-153, looked up) Ubiquitin-conjugating enzyme E2 36: MANSNLPRRIIKETQRLLSEPAPGISASPSEENMRYFNVMILGPTQSPYEGGVFKLELFLPEEYPMAAPKVRFLTKIYHPNIDKLGRICLDILKDKWSPALQIRTVLLSIQALLSAPNPDDPLSENIAKHWKSNEAEAVETAKEWTRLYASGA", "Normalized Fold Change: SA vs Mock": 3.95},
      {"binder": "ALDH7B4, aldehyde dehydrogenase 7B4 (protein, UniProt Q9SYG7 1-508, looked up) Aldehyde dehydrogenase family 7 member B4: MGSANNEYEFLSEIGLTSHNLGSYVAGKWQANGPLVSTLNPANNQPIAQVVEASLEDYEQGLKACEEAAKIWMQVTAPKRGDIVRQIGDALRSKLDYLGRLLSLEMGKILAEGIGEVQEVIDMCDFAVGLSRQLNGSVIPSERPNHMMLEMWNPLGIVGVITAFNFPCAVLGWNACIALVCGNCVVWKGAPTTPLITIAMTKLVAEVLEKNNLPGAIFTAMCGGAEIGEAIAKDTRIPLVSFTGSSRVGSMVQQTVNARSGKTLLELSGNNAIIVMDDADIQLAARSVLFAAVGTAGQRCTTCRRLLLHESVYDKVLEQLLTSYKQVKIGNPLEKGTLLGPLHTPESKKNFEKGIEVIKSQGGKILTGGKAVEGEGNFVEPTIIEISADAAVVKEELFAPVLYVLKFKSFGEAVAINNSVPQGLSSSIFTRNPENIFRWIGPLGSDCGIVNVNIPTNGAEIGGAFGGEKATGGGREAGSDSWKQYMRRSTCTINYGNELPLAQGINFG", "Normalized Fold Change: SA vs Mock": 2.01}
    ]}
  ]
}
